Source: US20160194391A1
Numbering of substitutions follows the chain as printed. Each block holds one binder with its values, some of them ahead of it.

Tests used:
human IL-6 (human) [1] = biological target: human IL-6 (human) (UniProt P05231)
human IL-6 (human) [2] = biological target: human IL-6 (human) (UniProt P05231); test: cell-based or functional assay
3×FLAG-IL-6 (human) [3] = test: SPR, 3×FLAG-IL-6 captured by anti-FLAG M2 on protein G, scFv-PEG as analyte; material refolded by dialysis from urea
3×FLAG-IL-6 (human), sequence (chain, as listed by the source limits assumed): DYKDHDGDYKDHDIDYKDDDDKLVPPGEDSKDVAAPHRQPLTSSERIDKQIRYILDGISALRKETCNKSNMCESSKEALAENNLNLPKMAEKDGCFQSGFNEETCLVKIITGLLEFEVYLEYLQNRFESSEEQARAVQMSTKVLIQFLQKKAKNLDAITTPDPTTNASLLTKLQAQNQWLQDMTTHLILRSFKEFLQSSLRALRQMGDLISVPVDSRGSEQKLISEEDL

3×FLAG-IL-6 (human) [4] = test: SPR, 3×FLAG-IL-6 captured by anti-FLAG M2 on protein G, scFv-PEG as analyte; material refolded by dialysis from urea; refolded by dialysis from urea
3×FLAG-IL-6 (human) [5] = test: SPR, 3×FLAG-IL-6 captured by anti-FLAG M2 on protein G, scFv-PEG as analyte; material refolded by rapid dilution from SDS; refolded by rapid dilution from SDS
[6] = biological target: human dimeric IL-23 (eBiosciences 34-8239) (human) (UniProt P29460)
human dimeric IL-23 (eBiosciences 34-8239) (human), sequence (P29460 23-328 limits assumed, chain 1 of 2): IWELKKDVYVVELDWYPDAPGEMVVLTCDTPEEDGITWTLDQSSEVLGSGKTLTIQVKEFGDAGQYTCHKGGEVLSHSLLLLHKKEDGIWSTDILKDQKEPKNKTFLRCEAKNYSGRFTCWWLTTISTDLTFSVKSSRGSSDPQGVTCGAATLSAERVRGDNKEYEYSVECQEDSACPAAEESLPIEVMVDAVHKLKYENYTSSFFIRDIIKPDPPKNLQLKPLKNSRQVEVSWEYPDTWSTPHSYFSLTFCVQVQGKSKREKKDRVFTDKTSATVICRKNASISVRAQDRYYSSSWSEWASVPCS
human dimeric IL-23 (eBiosciences 34-8239) (human), sequence (Q9NPF7 20-189 limits assumed, chain 2 of 2, further chain): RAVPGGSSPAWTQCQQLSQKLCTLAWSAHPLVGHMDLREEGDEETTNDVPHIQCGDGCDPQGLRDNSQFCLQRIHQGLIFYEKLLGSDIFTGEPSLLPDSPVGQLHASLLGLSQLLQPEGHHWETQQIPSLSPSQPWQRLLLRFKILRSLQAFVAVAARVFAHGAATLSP

human IL-6 (human), sequence (P05231 30-212 limits assumed): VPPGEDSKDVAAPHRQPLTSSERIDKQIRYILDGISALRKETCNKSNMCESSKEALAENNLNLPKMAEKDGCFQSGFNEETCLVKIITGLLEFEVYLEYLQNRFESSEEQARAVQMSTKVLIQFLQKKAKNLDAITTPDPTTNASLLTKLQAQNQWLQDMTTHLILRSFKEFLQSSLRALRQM

B1: 28D2 N-Aha (scFv)
scFv: MEDIQLTQSPSFLSASVGDRVTITCQASEDLFSSLAWYQQKPGKAPKLLIYSASTLASGVPSRFSGSGSGTDFTLTISSLQPEDFATYYCLGLYYYLTPDPIYGFGGGTKVEIKGGGGSGGGGSGGGGSGGGGSEVQLVESGGGLVQPGGSLRLSCTVSGLSLSKNAIAWVRQAPGKGLEWVGIIYAGGATTYASWAKGRFTISRDNSKNTLYLQLNSLRAEDTAVYYCAREYAGDSYYTGYTQLDLWGQGTLVTVSSGPPPPPHHHHHH
modifications: azidohomoalanine (Aha) in place of the single Met, at the N terminus
IC50 (read off the curve) (B9 proliferation, OD570-600) (human IL-6 (human) [1]): 0.03 ng/mL

B2: 28D2-L Aha (scFv)
scFv: B1 scFv with E2A, G121M
modifications: azidohomoalanine (Aha) in place of a single Met in the Gly/Ser linker between VL and VH
IC50 (read off the curve) (B9 proliferation, OD570-600) (human IL-6 (human) [1]): 0.03 ng/mL

B4: 28D2-C Aha (scFv)
scFv: MAHHHHHHPPPPAAADIQLTQSPSFLSASVGDRVTITCQASEDLFSSLAWYQQKPGKAPKLLIYSASTLASGVPSRFSGSGSGTDFTLTISSLQPEDFATYYCLGLYYYLTPDPIYGFGGGTKVEIKGGGGSGGGGSGGGGSGGGGSEVQLVESGGGLVQPGGSLRLSCTVSGLSLSKNAIAWVRQAPGKGLEWVGIIYAGGATTYASWAKGRFTISRDNSKNTLYLQLNSLRAEDTAVYYCAREYAGDSYYTGYTQLDLWGQGTLVTVSSGM
modifications: azidohomoalanine (Aha) in place of the single Met, at the C terminus
IC50 (read off the curve) (B9 proliferation, OD570-600) (human IL-6 (human) [1]): 0.03 ng/mL

Results, then the binder that gave them:

EC50, IL-6 neutralization; folded by dialysis from urea (human IL-6 (human) [2]): 116 pg/mL | EC50 of the product; folded by rapid dilution from SDS (human IL-6 (human) [2]): 256 pg/mL | EC50 of the product; folded by rapid dilution from urea (human IL-6 (human) [2]): 138 pg/mL | EC50 of the product; folded from guanidine (human IL-6 (human) [2]): 150 pg/mL | Kd (3×FLAG-IL-6 (human) [3]): 0.193 nM | koff (3×FLAG-IL-6 (human) [3]): 9.78e-05 s⁻¹ | kon (3×FLAG-IL-6 (human) [4]): 507000 M⁻¹ s⁻¹ | Kd (3×FLAG-IL-6 (human) [5]): 0.319 nM | koff (3×FLAG-IL-6 (human) [5]): 0.000104 s⁻¹ | kon (3×FLAG-IL-6 (human) [5]): 326000 M⁻¹ s⁻¹
B3: 28D2c-PEG (scFv)
scFv: B4 scFv
modifications: C-terminal azidohomoalanine (Aha) conjugated to 30 kDa linear PEG alkyne

IC50 (read off the curve) (IL-17 from mouse splenocytes, OD450) [6]: 400 pg/mL
B5: 45G5 humanized scFv (mammalian expressed) (scFv)
scFv: DIQLTQSPSFLSASVGDRVTITCQSSQSIYNNNLLSWYQQKPGKAPKLLIYFASTLASGVPSRFSGSGSGTEFTLTISSLQPEDFATYYCLGGYDDDADTAFGGGTKVEIKGGGGSGGGGSGGGGSGGGGSEVQLVESGGGLVQPGGSLRLSCTVSGFSLSVYPINWVRQAPGKGLEWVGIINDVDDTAYSAWAKGRFTISRDNSKNTLYLQMNSLRAEDTAVYYCARGYLSYAYAGDAFDPWGQGTLVTVSSGPPPPHHHHHH
